From US20110045008A1 (NEW YORK UNIVERSITY, published 2011)

T1: C-terminal truncated 35S-ADAMTS-18 (AD-CTD) (Homo sapiens (Human), UniProt Q8TE60 48-1064, 35S methionine)
T1 construct: also called C-terminal deficient ADAMTS-18
T1 sequence: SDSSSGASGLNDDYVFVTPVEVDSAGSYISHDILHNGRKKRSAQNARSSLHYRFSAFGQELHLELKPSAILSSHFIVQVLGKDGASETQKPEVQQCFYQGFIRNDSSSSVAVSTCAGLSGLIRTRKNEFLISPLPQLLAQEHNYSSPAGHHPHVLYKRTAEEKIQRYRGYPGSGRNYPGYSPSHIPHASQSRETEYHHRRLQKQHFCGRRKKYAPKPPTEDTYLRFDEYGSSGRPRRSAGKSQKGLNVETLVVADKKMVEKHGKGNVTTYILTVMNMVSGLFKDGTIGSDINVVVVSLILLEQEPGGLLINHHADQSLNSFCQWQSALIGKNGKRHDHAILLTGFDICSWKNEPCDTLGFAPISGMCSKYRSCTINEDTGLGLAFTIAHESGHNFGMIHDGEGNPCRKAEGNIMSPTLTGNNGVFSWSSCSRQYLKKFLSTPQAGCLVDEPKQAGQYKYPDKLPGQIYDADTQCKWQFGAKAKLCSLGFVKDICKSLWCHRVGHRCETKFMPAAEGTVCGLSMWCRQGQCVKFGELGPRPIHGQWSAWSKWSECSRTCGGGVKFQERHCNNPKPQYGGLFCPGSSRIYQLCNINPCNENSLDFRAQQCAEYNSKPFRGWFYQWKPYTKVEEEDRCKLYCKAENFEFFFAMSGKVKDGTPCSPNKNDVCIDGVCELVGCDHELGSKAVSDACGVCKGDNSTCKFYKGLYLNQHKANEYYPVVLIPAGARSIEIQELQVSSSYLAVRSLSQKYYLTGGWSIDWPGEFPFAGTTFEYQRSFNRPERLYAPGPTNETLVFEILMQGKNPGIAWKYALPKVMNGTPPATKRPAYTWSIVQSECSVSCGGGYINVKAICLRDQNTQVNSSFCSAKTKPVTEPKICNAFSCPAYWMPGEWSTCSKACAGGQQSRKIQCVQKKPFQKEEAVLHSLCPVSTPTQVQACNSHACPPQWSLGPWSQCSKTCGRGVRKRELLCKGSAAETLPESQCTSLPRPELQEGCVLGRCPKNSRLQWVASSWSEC

B1: ADAMTS-18 C-terminal 385 amino acid fragment (AD-18F) (ligand)
chain: NETLVFEILMQGKNPGIAWKYALPKVMNGTPPATKRPAYTWSIVQSECSVSCGGGYINVKAICLRDQNTQVNSSFCSAKTKPVTEPKICNAFSCPAYWMPGEWSTCSKACAGGQQSRKIQCVQKKPFQKEEAVLHSLCPVSTPTQVQACNSHACPPQWSLGPWSQCSKTCGRGVRKRELLCKGSAAETLPESQCTSLPRPELQEGCVLGRCPKNSRLQWVASSWSECSATCGLGVRKREMKCSEKGFQGKLITFPERRCRNIKKPNLDLEETCNRRACPAHPVYNMVAGWYSLPWQQCTVTCGGGVQTRSVHCVQQGRPSSSCLLHQKPPVLRACNTNFCPAPEKREDPSCVDFFNWCHLVPQHGVCNHKFYGKQCCKSCTRKI
B2: platelet GPIIIa (integrin beta3) on platelets (receptor, human, UniProt P05106 27-788, looked up)
chain: GPNICTTRGVSSCQQCLAVSPMCAWCSDEALPLGSPRCDLKENLLKDNCAPESIEFPVSEARVLEDRPLSDKGSGDSSQVTQVSPQRIALRLRPDDSKNFSIQVRQVEDYPVDIYYLMDLSYSMKDDLWSIQNLGTKLATQMRKLTSNLRIGFGAFVDKPVSPYMYISPPEALENPCYDMKTTCLPMFGYKHVLTLTDQVTRFNEEVKKQSVSRNRDAPEGGFDAIMQATVCDEKIGWRNDASHLLVFTTDAKTHIALDGRLAGIVQPNDGQCHVGSDNHYSASTTMDYPSLGLMTEKLSQKNINLIFAVTENVVNLYQNYSELIPGTTVGVLSMDSSNVLQLIVDAYGKIRSKVELEVRDLPEELSLSFNATCLNNEVIPGLKSCMGLKIGDTVSFSIEAKVRGCPQEKEKSFTIKPVGFKDSLIVQVTFDCDCACQAQAEPNSHRCNNGNGTFECGVCRCGPGWLGSQCECSEEDYRPSQQDECSPREGQPVCSQRGECLCGQCVCHSSDFGKITGKYCECDDFSCVRYKGEMCSGHGQCSCGDCLCDSDWTGYYCNCTTRTDTCMSSNGLLCSGRGKCECGSCVCIQPGSYGDTCEKCPTCPDACTFKKECVECKKFDRGALHDENTCNRYCRDEIESVKELKDTGKDAVNCTYKNEDDCVVRFQYYEDSSGKSILYVVEEPECPKGPDILVVLLSVMGAILLIGLAALLIWKLLITIHDRKEFAKFEEERARAKWDTANNPLYKEATSTFTNITYRGT
notes: whole, on cells; On platelets GPIIIa stands in the GPIIb-IIIa complex; also called platelet GPIIIa(49-66); platelet integrin GPIIIa

How the values were obtained:
[1] = molecular target: B2; assay: cell-based or functional assay
[2] = molecular target: T1, C-terminal truncated 35S-ADAMTS-18 …; assay: 35S-labelled protein on gel filtered platelets, overnight at 4 C
Experimental: FIGS. 14A-C show the effect of ADAMTS-18 on oxidative platelet fragmentation and binding to platelets. […] Gel-filtered platelets were treated with Biotin-peptide (bp) as well as bp+streptavidin (str) and scrambled Biotinylated ADAMTS-18 peptide (scp) to induce integrin clustering, n=6. Platelet fragmentation was assessed by FACS as described in the examples section. […] CT (control IgG), Ab (patient IgG). 18-mer biotin-peptide was incubated with an anti-Biotin Ab, 1:200 dilution (gray bars) or irrelevant IgG white bars, n=6. Oxidation was assessed. […] Ctl refers to ³⁵S ribosomal-translation of luciferase. AD-CTD refers to ³⁵S-ribosomal translation of ADAMTS-18 with absent C-terminal 157 amino acids (13% deleted). There is an absence of binding with C-terminal deficient ADAMTS-18. 18 mer refers to 10 μM non-radioactive 18 mer peptide added with the ³⁵S-ADAMTS-18 incubation. Binding with C-terminal 18 mer peptide is inhibited. The amino acid sequence for the 18-mer peptide is (SEQ ID NO: 8): […]

Binder | platelet fragmentation of TFLLRN-activated platelets against platelets without prestimulation [1] [fold] | binding result [2]
B1 | ~22 | –
B2 | – | no binding
